# Measurements: patent US20130115678
# Assays:
# Assay in all cases: cleavage_in_vitro
# [1] = test system: T1, BsmBI-HF N185Y/R232A (Bacillus stearothermophilus); details: NEB4, 55 C, Mg2+; listed as BsmBI; FI NEB1-3: 2, >=500, >=64
# T1 sequence: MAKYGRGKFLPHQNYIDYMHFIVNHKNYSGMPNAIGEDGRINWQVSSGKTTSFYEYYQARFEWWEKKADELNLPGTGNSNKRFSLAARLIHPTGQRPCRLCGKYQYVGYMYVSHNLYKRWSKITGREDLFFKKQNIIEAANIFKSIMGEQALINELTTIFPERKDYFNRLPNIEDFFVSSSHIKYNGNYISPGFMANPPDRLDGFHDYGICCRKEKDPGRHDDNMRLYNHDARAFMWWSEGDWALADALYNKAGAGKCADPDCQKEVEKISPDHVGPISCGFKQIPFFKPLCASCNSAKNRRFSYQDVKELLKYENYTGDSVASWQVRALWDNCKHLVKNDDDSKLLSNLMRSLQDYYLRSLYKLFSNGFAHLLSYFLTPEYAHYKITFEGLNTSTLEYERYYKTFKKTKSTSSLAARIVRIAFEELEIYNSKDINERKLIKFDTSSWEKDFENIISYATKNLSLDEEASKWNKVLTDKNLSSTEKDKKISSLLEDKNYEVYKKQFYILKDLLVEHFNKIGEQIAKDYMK
# [2] = target: EcoRI-HF K62E (Escherichia coli RY13) (UniProt P00642); details: NEB4, 37 C, Mg2+; FI NEB1-3: 2000, 4000, 250
# [3] = target: T2, HpaI (Haemophilus parainfluenzae) (UniProt P29537); details: NEB4, 37 C, Mg2+; FI NEB1-3: 32, 1, 2
# T2 sequence: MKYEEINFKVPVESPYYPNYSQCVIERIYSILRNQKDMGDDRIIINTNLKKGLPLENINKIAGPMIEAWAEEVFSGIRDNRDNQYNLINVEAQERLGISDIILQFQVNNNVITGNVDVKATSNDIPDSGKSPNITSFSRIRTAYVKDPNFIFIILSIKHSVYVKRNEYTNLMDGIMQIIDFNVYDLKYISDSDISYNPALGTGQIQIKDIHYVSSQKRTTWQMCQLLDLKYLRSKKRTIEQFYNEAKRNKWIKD
# [4] = test system: T3, NcoI-HF A2T/R31A (Nocardia corallina); details: NEB4, 37 C, Mg2+; Table 3 prints >=64000; FI NEB1-3: >=4000, >=4000, >=1000
# T3 sequence: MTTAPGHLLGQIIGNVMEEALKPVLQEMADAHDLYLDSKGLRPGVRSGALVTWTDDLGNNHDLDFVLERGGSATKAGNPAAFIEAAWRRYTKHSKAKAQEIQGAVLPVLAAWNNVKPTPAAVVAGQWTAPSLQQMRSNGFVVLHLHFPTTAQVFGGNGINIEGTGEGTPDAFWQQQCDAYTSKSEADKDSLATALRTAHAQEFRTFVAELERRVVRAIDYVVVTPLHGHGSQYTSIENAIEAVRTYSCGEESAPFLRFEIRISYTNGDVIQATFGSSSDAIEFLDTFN
# [5] = target: T4, PstI (Providencia stuartii 164) (UniProt P00640); details: NEB4, 37 C, Mg2+; FI NEB1-3: 64, 32, 120
# T4 sequence: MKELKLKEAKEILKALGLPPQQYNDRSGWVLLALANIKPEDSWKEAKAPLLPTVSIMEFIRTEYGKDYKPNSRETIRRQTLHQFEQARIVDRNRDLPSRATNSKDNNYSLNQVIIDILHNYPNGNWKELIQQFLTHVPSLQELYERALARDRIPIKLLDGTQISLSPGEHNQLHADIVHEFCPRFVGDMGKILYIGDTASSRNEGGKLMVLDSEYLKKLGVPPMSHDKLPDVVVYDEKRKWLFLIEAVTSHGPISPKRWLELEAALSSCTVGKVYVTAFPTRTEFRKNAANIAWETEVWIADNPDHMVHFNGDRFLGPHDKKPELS
substance,measurement,setting,value
lambda phage DNA,activity (fidelity index),[1],> 500
same,activity (fidelity index),[2],16000
same,activity (fidelity index),[3],16
same,activity (fidelity index),[4],> 16000
same,activity (fidelity index),[5],8
